Reference: patent publication US20100040606A1

Molecular target: RSV protein F (fusion glycoprotein), recombinant or purified (human respiratory syncytial virus, strain not stated) (UniProt P03420)
Assay: SPR (Biacore 3000), Fab over immobilised recombinant antigen

Substance: Fab fragment derived from commercially available Palivizumab (Synagis)
- Kd: 3.78 nM
- koff: 0.000757 s⁻¹
- kon: 200000 M⁻¹ s⁻¹
- t1/2: 15 min
